Among the data in publication PMC5379923 are Kd values, retold here.

The experiment addresses monobody L3 E29Q labeled with EDANS at A12C. Kind of experiment: fluorescence polarisation. For orientation: Fluorescence polarisation rises when a labelled molecule tumbles more slowly, as on binding a larger partner.

B1: Fluc homologue from Bordetella pertussis, Bpe (natural protein)
chain: MLTYAPLNFIAIGIGATLGAWLRWVLGLRLNGAGWPWGTLTANLVGGYLIGVMVALIASHPEWPAWIRLAAVTGFLGGLTTFSTFSAETVDMLERGVYATAAAYAGASLAGSLAMTGLGLATVRLLLR
The Kd is the concentration at which binding is half-saturated. Regarding B1, the Kd is 150 nM.
